In assay [1] the target is T1, hMSLN recombinant protein (human mesothelin) (human, UniProt Q13421 296-598, limits assumed).
T1 construct: Amine-coupled to a CM5 chip for SPR; also called recombinant mesothelin (MSLN); biotinylated hMSLN recombinant protein
The assay can be described thus: SPR, BIAcore T200; hMSLN amine-coupled on CM5 chip, scFv injected; 1:1 Langmuir model; mean of three experiments. The procedure: (§1) To measure the affinity of the selected variants, surface plasmon resonance (SPR) was performed by using a BIAcore T200 device. For analysis, hMSLN was immobilized on a CM5 sensor chip by using an amine coupling method. Experiments were performed by using HBS-EP buffer, and diluted samples of each scFv variant were injected at a rate of 30 μl/min for 120 seconds and dissociated for 5 minutes. After the first experiment, 5 mM NaOH and 0.5 M arginine at pH 8.0 were sequentially injected for 30 seconds to regenerate the chip. For each scFv variant, three separate experiments were averaged to determine a dissociation constant, and each dissociation constant was determined by using a 1:1 Langmuir model in BIAevaluation 3.2 software.
On the technique in general: SPR reads the build-up and loss of mass on a sensor chip optically.

Assay [2] deals with T1, hMSLN recombinant protein (human …). Briefly: ELISA: 100 ng purified scFv coated per well, biotinylated hMSLN titrated, streptavidin-HRP, A450; the concentration varied is that of hMSLN. The procedure:
(§2) Specifically, each well of the 96-well immune plate was coated with 100 ng of the scFv variants produced as recombinant proteins at 4° C. for 16 hours. After adding 100 μl of pH 7.4 PBS supplemented with 3% bovine serum albumin (BSA) to each well, the cells were incubated at room temperature for 1 hour, and the plate was washed three times with 350 μl of PBS-T. The biotinylated hMSLN recombinant protein was diluted to 1 μM, 200 nM, 40 nM, 8 nM, 1.6 nM, and 0.32 nM in the pH 7.4 PBS, and reacted at room temperature for 1 hour with each of the coated scFv antibodies. Afterwards, the cells were washed three times with 350 μl of PBS-T per well. Then, 50 μl of HRP-conjugated streptavidin diluted at 1:15,000 in the pH 7.4 PBS was added to the cells followed by incubation of the cells at room temperature for 1 hour, and washing three times with 350 μl of PBS-T. After adding 50 μl of TMB, the cells were incubated at room temperature for 15 minutes, the reaction was terminated by adding 50 μl of 2 M H₂SO₄, and the absorbance at 450 nm was measured.
For orientation: In an ELISA, binding on a coated surface is turned into a signal by an enzyme label.

For assay [3], the target named is T2, hMSLN recombinant protein (human mesothelin) (human, UniProt Q13421 296-598). Briefly: SPR, BIAcore T200; hMSLN amine-coupled on CM5 chip, scFv injected; 1:1 Langmuir model; mean of three experiments. Here is the method:
as §1

The target in assay [4] is T2, hMSLN recombinant protein (human …). Briefly: ELISA: 100 ng purified scFv coated per well, biotinylated hMSLN titrated, streptavidin-HRP, A450; the concentration varied is that of hMSLN. Here is the method: as §2

Usually Kd stands for the free concentration of one partner at which half of the binding sites on the other are occupied at equilibrium, for simple one-to-one binding. Usually EC50 (read off the curve) stands for the concentration needed to bring the measured effect to its halfway point.

T2 sequence (Q13421 other isoform, or with tags, fused parts or gaps): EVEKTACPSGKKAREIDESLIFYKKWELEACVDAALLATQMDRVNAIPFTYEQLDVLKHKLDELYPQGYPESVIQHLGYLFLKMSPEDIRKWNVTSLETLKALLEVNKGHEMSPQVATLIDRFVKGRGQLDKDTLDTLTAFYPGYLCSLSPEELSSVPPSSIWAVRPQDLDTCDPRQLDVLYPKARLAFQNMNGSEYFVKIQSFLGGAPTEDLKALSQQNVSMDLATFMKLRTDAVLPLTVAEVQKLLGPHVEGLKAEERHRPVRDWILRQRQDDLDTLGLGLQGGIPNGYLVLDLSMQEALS
T1 sequence (Q13421 other isoform, or with tags, fused parts or gaps limits assumed): as the sequence (Q13421 other isoform, or with tags, fused parts or gaps) above

B1: wild-type M5 scFv (DFDY) (scFv)
scFv: QVQLVQSGAEVEKPGASVKVSCKASGYTFTDYYMHWVRQAPGQGLEWMGWINPNSGGTNYAQKFQGRVTMTRDTSISTAYMELSRLRSDDTAVYYCASGWDFDYWGQGTLVTVSSGGGGSGGGGSGGGGSGGGGSDIVMTQSPSSLSASVGDRVTITCRASQSIRYYLSWYQQKPGKAPKLLIYTASILQNGVPSRFSGSGSGTDFTLTISSLQPEDFATYYCLQTYTTPDFGPGTKVEIK
notes: Recombinant protein made in E. coli BL21(DE3) and purified; also called WT M5 scFv; WT DFDY
Regarding B1, the Kd in assay [1] came to 11.2 nM. Moreover, the “EC50 (read off the curve)” value in assay [2] was ~40 nM.

B2: M5 scFv variant DVAY (scFv)
chain: QVQLVQSGAEVEKPGASVKVSCKASGYTFTDYYMHWVRQAPGQGLEWMGWINPNSGGTNYAQKFQGRVTMTRDTSISTAYMELSRLRSDDTAVYYCASGWDVAYWGQGTLVTVSSGGGGSGGGGSGGGGSGGGGSDIVMTQSPSSLSASVGDRVTITCRASQSIRYYLSWYQQKPGKAPKLLIYTASILQNGVPSRFSGSGSGTDFTLTISSLQPEDFATYYCLQTYTTPDFGPGTKVEIK
On to B2, for which, in assay [3], the equilibrium dissociation constant (Kd) was 121 nM.

B3: DGAD (scFv)
chain: QVQLVQSGAEVEKPGASVKVSCKASGYTFTDYYMHWVRQAPGQGLEWMGWINPNSGGTNYAQKFQGRVTMTRDTSISTAYMELSRLRSDDTAVYYCASGWDGADWGQGTLVTVSSGGGGSGGGGSGGGGSGGGGSDIVMTQSPSSLSASVGDRVTITCRASQSIRYYLSWYQQKPGKAPKLLIYTASILQNGVPSRFSGSGSGTDFTLTISSLQPEDFATYYCLQTYTTPDFGPGTKVEIK
B3: the half-maximal effective concentration (EC50 (read off the curve)) in assay [4] is ~40 nM.

(Values after patent publication US20240151728A1 (KOREA INSTITUTE OF SCIENCE AND TECHNOLOGY, published 2024).)
